Assays:
Test in all cases: cell-based or functional assay
[1] = target: Envelope protein of control pseudovirus MuLV (MuLV)
[2] = target: HIV-1 Env of pseudovirus TR0.11 (HIV-1)
[3] = target: HIV-1 Env of isolate 92UG024 (clade D) (HIV-1)
[4] = target: HIV-1 Env of isolate 93IN905 (clade C) (HIV-1)
[5] = target: HIV-1 Env of isolate MGRM-A-010 (clade A) (HIV-1)
[6] = target: HIV-1 Env of isolate APV6 (clade B) (HIV-1)
[7] = target: HIV-1 APV13 Env (HIV-1 isolate APV13 (clade B))
[8] = target: HIV-1 MGRM-D-001 Env (HIV-1 isolate MGRM-D-001 (clade D))
[9] = target: HIV-1 JR-CSF Env K343A (HIV-1 isolate JR-CSF) (UniProt P20871)
[10] = target: HIV-1 92RW020 envelope glycoprotein (Env), clade A pseudovirus (HIV-1)
[11] = target: HIV-1 MGRM-C-026 envelope glycoprotein (Env), clade C pseudovirus (HIV-1)
[12] = target: HIV-1 MGRM-C-028 envelope glycoprotein (Env), clade C pseudovirus (HIV-1)
[13] = target: HIV-1 93UG077 envelope glycoprotein (Env), clade A pseudovirus (HIV-1)
[14] = target: HIV-1 92BR020 envelope glycoprotein (Env), clade B pseudovirus (HIV-1)
[15] = target: HIV-1 NL43 envelope glycoprotein (Env), clade B pseudovirus (HIV-1)
[16] = target: HIV-1 MGRM-A-010 envelope glycoprotein (Env) on virus (HIV-1, clade A, isolate MGRM-A-010)
[17] = target: HIV-1 MGRM-C-028 envelope glycoprotein (Env) on virus (HIV-1, clade C, isolate MGRM-C-028)
[18] = target: HIV-1 NL43 envelope glycoprotein (Env) on virus (HIV-1, clade B, isolate NL43)
[19] = target: HIV-1 92UG005 Env (pseudovirus) (HIV-1)
[20] = target: aMLV envelope (negative control pseudovirus)
[21] = target: HIV-1 envelope glycoprotein (Env) of isolate APV6 (HIV-1)
[22] = target: HIV-1 NL43 envelope glycoprotein (Env) (HIV-1)
[23] = target: HIV-1 92UG024 envelope glycoprotein (Env) (HIV-1)
[24] = target: HIV-1 MGRM-C-028 envelope glycoprotein (Env) (HIV-1)
[25] = target: HIV-1 92RW020 envelope glycoprotein (Env) on pseudovirus (HIV-1)
[26] = target: HIV-1 Env of isolate MGRM-Chronic-B-001 (subtype B), on pseudovirus (HIV-1)
[27] = target: HIV-1 envelope glycoprotein (Env) of isolate 92UG037 (HIV-1)
[28] = target: HIV-1 envelope glycoprotein (Env) of isolate MG RM-A-006 (HIV-1)
[29] = target: HIV-1 Env of isolate 92UG005 (subtype D) (HIV-1)
[30] = target: HIV-1 envelope glycoprotein (Env) of isolate MG RM-A-001 (HIV-1)
[31] = target: HIV-1 Env of isolate MGRM-F1-015 (subtype F) (HIV-1)
[32] = target: HIV-1 Env of isolate MG RM-D-029 (subtype D) (HIV-1)

5329_C19 (PGT-136) (antibody), sequence (VH): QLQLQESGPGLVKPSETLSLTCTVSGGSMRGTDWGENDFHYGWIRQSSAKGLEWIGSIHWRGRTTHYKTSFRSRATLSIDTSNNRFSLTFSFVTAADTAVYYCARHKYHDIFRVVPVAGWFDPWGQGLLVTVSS
5329_C19 (PGT-136) (antibody), sequence (VL): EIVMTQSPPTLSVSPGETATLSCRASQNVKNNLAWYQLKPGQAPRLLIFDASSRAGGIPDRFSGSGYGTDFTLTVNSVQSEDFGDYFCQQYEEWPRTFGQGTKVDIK
1443_C16 (PG16) (TCN-116) (antibody), sequence (VH): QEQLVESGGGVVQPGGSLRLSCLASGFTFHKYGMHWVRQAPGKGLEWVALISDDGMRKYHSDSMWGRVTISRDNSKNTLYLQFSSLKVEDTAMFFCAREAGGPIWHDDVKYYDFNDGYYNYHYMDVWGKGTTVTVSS
1443_C16 (PG16) (TCN-116) (antibody), sequence (VL): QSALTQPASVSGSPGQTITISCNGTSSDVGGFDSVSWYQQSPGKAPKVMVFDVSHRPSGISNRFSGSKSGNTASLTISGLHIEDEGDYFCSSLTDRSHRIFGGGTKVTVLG

## 1443_C16 (PG16) (TCN-116) (antibody)
[1]
  IC50, pseudovirus neutralization (TZM-bl assay), control virus: > 25 µg/mL
[2]
  IC50, pseudovirus neutralization (TZM-bl assay): 3.61 µg/mL

## 1496_C09 (PG9) (TCN-109) (antibody)
[3]
  neutralization IC50: 1.91 µg/mL
[4]
  Neutralization IC80: 0.308 µg/mL
  Neutralization IC90: 0.981 µg/mL
  Neutralization IC95: 3.31 µg/mL
  neutralization IC50: 0.048 µg/mL
[5]
  Neutralization IC80: 0.121 µg/mL
  Neutralization IC90: 0.242 µg/mL
  Neutralization IC95: 0.456 µg/mL
  neutralization IC50: 0.0375 µg/mL
[6]
  Neutralization IC80: 1.13 µg/mL
  Neutralization IC90: 3.21 µg/mL
  Neutralization IC95: 9.65 µg/mL
  neutralization IC50: 0.214 µg/mL

## 4838_L06 (PGT-121) (antibody)
[7]
  Neutralization IC80: 1.31 µg/mL
  Neutralization IC90: 2.8 µg/mL
  Neutralization IC95: 5.15 µg/mL
[8]
  Neutralization IC80: 3.29 µg/mL
  Neutralization IC90: 6.26 µg/mL
  Neutralization IC95: 9.39 µg/mL

## 4858_P08 (PGT-123) (antibody)
[9]
  Fold IC50 increase relative to wild-type: 0.3 fold
[10]
  IC50, pseudovirus neutralization: 0.0038 µg/mL
  IC80 (pseudovirus neutralization): 0.0106 µg/mL
  IC90 (pseudovirus neutralization): 0.0194 µg/mL
  IC95 (pseudovirus neutralization): 0.0343 µg/mL
[11]
  IC50, pseudovirus neutralization: 0.0031 µg/mL
  IC80 (pseudovirus neutralization): 0.0094 µg/mL
  IC90 (pseudovirus neutralization): 0.0183 µg/mL
  IC95 (pseudovirus neutralization): 0.0338 µg/mL
[12]
  IC50, pseudovirus neutralization: 0.443 µg/mL
  IC80 (pseudovirus neutralization): 2.8 µg/mL
  IC90 (pseudovirus neutralization): 7.11 µg/mL
  IC95 (pseudovirus neutralization): > 10 µg/mL
[13]
  IC50, pseudovirus neutralization: 0.0303 µg/mL
  IC80 (pseudovirus neutralization): 0.143 µg/mL
  IC90 (pseudovirus neutralization): 0.35 µg/mL
  IC95 (pseudovirus neutralization): 0.78 µg/mL
[14]
  IC50, pseudovirus neutralization: 0.013 µg/mL
  IC80 (pseudovirus neutralization): 0.039 µg/mL
  IC90 (pseudovirus neutralization): 0.0741 µg/mL
  IC95 (pseudovirus neutralization): 0.134 µg/mL
[15]
  IC50, pseudovirus neutralization: > 10 µg/mL
  IC80 (pseudovirus neutralization): > 10 µg/mL
  IC90 (pseudovirus neutralization): > 10 µg/mL
  IC95 (pseudovirus neutralization): > 10 µg/mL

## 4877_D15 (PGT-122) (antibody)
[16]
  Neutralization IC80: > 10 µg/mL
  Neutralization IC90: > 10 µg/mL
  Neutralization IC95: > 10 µg/mL
  neutralization IC50: 1.68 µg/mL
[17]
  Neutralization IC80: > 10 µg/mL
  Neutralization IC90: > 10 µg/mL
  Neutralization IC95: > 10 µg/mL
  neutralization IC50: 2.06 µg/mL
[18]
  Neutralization IC80: > 10 µg/mL
  Neutralization IC90: > 10 µg/mL
  Neutralization IC95: > 10 µg/mL
  neutralization IC50: > 10 µg/mL

## 5123_A06 (PGT-125) (antibody)
[19]
  Neutralization by PGT-125, IC50: > 10 µg/mL
  Neutralization by PGT-125, IC80: > 10 µg/mL
  Neutralization by PGT-125, IC90: > 10 µg/mL
  Neutralization by PGT-125, IC95: > 10 µg/mL
[20]
  Neutralization by PGT-125, IC50: > 10 µg/mL
  Neutralization by PGT-125, IC80: > 10 µg/mL
  Neutralization by PGT-125, IC90: > 10 µg/mL
  Neutralization by PGT-125, IC95: > 10 µg/mL

## 5141_B17 (PGT-126) (antibody)
[21]
  Neutralization IC80: 0.0681 µg/mL
  Neutralization IC90: 0.123 µg/mL
  Neutralization IC95: 0.213 µg/mL
  neutralization IC50: 0.0249 µg/mL

## 5329_C19 (PGT-136) (antibody)
[22]
  Neutralization IC80: > 10 µg/mL
  Neutralization IC90: > 10 µg/mL
  Neutralization IC95: > 10 µg/mL
  neutralization IC50: > 10 µg/mL
[23]
  Neutralization IC80: 0.619 µg/mL
  Neutralization IC90: 1.96 µg/mL
  Neutralization IC95: 5.97 µg/mL
  neutralization IC50: 0.0915 µg/mL
[24]
  Neutralization IC80: > 10 µg/mL
  Neutralization IC90: > 10 µg/mL
  Neutralization IC95: > 10 µg/mL
  neutralization IC50: > 10 µg/mL

## 5343_B08 (PGT-135) (antibody)
[25]
  Neutralization IC80: 3.46 µg/mL
  Neutralization IC90: > 10 µg/mL
  Neutralization IC95: > 10 µg/mL
  neutralization IC50: 0.157 µg/mL

## PGV04 (antibody)
[26]
  IC50, single-round pseudovirus neutralization: 0.048 µg/mL
[27]
  IC50: 0.145 µg/mL
[28]
  IC50: 0.244 µg/mL
[29]
  IC50 (µg/mL), pseudovirus neutralization: 0.44 µg/mL
[30]
  IC50: 6.78 µg/mL
[31]
  IC50 (µg/mL), pseudovirus neutralization: 0.179 µg/mL
[32]
  IC50 (µg/mL), pseudovirus neutralization: 1.56 µg/mL
